Assay results: article PMC2965767, “Identification and Genome-Wide Prediction of DNA Binding Specificities for the ApiAP2 Family of Regulators from the Malaria Parasite”

target: T1, PF14_0533 D1 (PF3D7_1456000, AP2 domain transcription factor, putative) (Plasmodium falciparum) (UniProt Q8IKR9); assay: not given; conditions: PBM; highest protein concentration obtained; buffer not given; scale: PBM E-score of the seed 8-mer
T1 sequence: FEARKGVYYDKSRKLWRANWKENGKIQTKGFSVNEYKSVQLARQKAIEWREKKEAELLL

| Molecule | binding signal |
| --- | --- |
| CACACACAC (double strand) [PF14_0533 primary motif] | 0.5 |
| GTGTGCA (double strand) [PF14_0533 Secondary motif 1] | > 0.45 |

target: T2, PF10_0075 D3ext (PF3D7_1007700, AP2 domain transcription factor AP2-I) (Plasmodium falciparum) (UniProt Q8IJW6); assay: not given; conditions: PBM; highest protein concentration obtained; buffer not given; scale: PBM E-score of the seed 8-mer
T2 sequence: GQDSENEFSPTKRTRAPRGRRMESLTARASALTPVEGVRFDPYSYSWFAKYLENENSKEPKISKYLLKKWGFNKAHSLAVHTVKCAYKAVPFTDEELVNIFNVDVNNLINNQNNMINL

| Molecule | binding signal |
| --- | --- |
| ATATGCAC (double strand) [PF10_0075_D3 Secondary motif 3] | > 0.45 |
| GTGCACTA (double strand) [PF10_0075_D3 primary motif] | 0.496 |
| GTGCGCAC (double strand) [PF10_0075_D3 Secondary motif 1] | > 0.45 |
| GTGCGKTA / TAMCGCAC [PF10_0075_D3 Secondary motif 2] | > 0.45 |
| GTGCAA (double strand) [PF10_0075_D3 Secondary motif 4] | > 0.45 |

target: T3, PF13_0267 D1 (PF3D7_1350900, AP2 domain transcription factor AP2-O4, putative) (Plasmodium falciparum) (UniProt A0A5K1K8Z4); assay: not given; conditions: PBM; highest protein concentration obtained; buffer not given; scale: PBM E-score of the seed 8-mer
T3 sequence: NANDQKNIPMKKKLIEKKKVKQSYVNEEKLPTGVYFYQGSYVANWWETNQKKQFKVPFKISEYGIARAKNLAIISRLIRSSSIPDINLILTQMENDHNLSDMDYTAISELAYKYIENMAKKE

| Molecule | binding signal |
| --- | --- |
| ATTCTAGAA (double strand) [PF13_0267 primary motif] | 0.479 |
| ACCTAA (double strand) [PF13_0267 Secondary motif 2] | > 0.45 |
| CTANTAG (double strand) [PF13_0267 Secondary motif 1] | > 0.45 |

target: T4, PFL1085w D1ext (PF3D7_1222600, AP2 domain transcription factor AP2-G) (Plasmodium falciparum) (UniProt Q8I5I9); assay: not given; conditions: PBM; highest protein concentration obtained; buffer not given; scale: PBM E-score of the seed 8-mer
T4 sequence: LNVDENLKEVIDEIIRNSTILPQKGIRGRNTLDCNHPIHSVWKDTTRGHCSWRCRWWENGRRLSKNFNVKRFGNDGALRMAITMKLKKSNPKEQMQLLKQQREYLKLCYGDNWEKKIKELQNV

| Molecule | binding signal |
| --- | --- |
| GTGGTC (double strand) [PFL1085w Secondary motif 2] | > 0.45 |
| GTACTACT (double strand) [PFL1085w Secondary motif 1] | > 0.45 |
| GTGTAC (double strand) [PFL1085w primary motif] | 0.49 |

target: T5, PF10_0075 D1ext (PF3D7_1007700, AP2 domain transcription factor AP2-I) (Plasmodium falciparum) (UniProt Q8IJW6); assay: not given; conditions: PBM; highest protein concentration obtained; buffer not given; scale: PBM E-score of the seed 8-mer
T5 sequence: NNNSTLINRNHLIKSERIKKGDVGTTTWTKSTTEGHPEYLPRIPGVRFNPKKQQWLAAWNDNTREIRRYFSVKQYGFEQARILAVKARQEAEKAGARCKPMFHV

| Molecule | binding signal |
| --- | --- |
| RGGTCGTTA / TAACGACCY [PF10_0075_D1 Secondary motif 2] | > 0.45 |
| GGGTCGACCC (double strand) [PF10_0075_D1 primary motif] | 0.495 |
| GGTTCCGA (double strand) [PF10_0075_D1 Secondary motif 5] | > 0.45 |
| GTCGCGAC (double strand) [PF10_0075_D1 Secondary motif 3] | > 0.45 |
| TCGGKGCA / TGCMCCGA [PF10_0075_D1 Secondary motif 1] | > 0.45 |

target: T6, PF13_0097 D1 (PF3D7_1317200, AP2 domain transcription factor AP2-FG, putative) (Plasmodium falciparum) (UniProt Q8IEE4); assay: not given; conditions: PBM; highest protein concentration obtained; buffer not given; scale: PBM E-score of the seed 8-mer
T6 sequence: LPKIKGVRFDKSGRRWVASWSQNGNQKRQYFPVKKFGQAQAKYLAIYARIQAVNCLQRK

| Molecule | binding signal |
| --- | --- |
| TGATCM / KGATCA [PF13_0097 Secondary motif 2] | > 0.45 |
| TGCTCAA (double strand) [PF13_0097 Secondary motif 1] | > 0.45 |
| TCACYCAR / YTGRGTGA [PF13_0097 Secondary motif 3] | > 0.45 |
| AGCTCAGA (double strand) [PF13_0097 primary motif] | 0.489 |

target: T7, PF14_0633 D1 (PF3D7_1466400, AP2 domain transcription factor AP2-EXP) (Plasmodium falciparum) (UniProt Q8IKH2); assay: not given; conditions: PBM; highest protein concentration obtained; buffer not given; scale: PBM E-score of the seed 8-mer
T7 sequence: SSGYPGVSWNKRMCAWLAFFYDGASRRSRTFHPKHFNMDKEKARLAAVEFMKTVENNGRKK

| Molecule | binding signal |
| --- | --- |
| ARCATGCA / TGCATGYT [PF14_0633 Secondary motif 1] | > 0.45 |
| GCATGC (double strand) [PF14_0633 primary motif] | 0.5 |

target: T8, PFL1900w DLD (PF3D7_1239200, AP2 domain transcription factor, putative) (Plasmodium falciparum) (UniProt Q8I531); assay: not given; conditions: PBM; highest protein concentration obtained; buffer not given; scale: PBM E-score of the seed 8-mer
T8 sequence: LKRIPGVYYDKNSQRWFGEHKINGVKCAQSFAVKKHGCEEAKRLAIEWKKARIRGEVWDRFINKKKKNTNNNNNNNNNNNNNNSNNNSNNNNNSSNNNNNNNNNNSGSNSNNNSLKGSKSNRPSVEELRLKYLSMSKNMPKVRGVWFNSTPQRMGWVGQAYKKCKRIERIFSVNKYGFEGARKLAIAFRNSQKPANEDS

| Molecule | binding signal |
| --- | --- |
| ACRACATC / GATGTYGT [PFL1900w_DLD Secondary motif 1] | > 0.45 |
| TCTACAA (double strand) [PFL1900w_DLD primary motif] | 0.468 |
| ACCGCGGT (double strand) [PFL1900w_DLD Secondary motif 2] | > 0.45 |

target: T9, PFF0670w D2ext (PF3D7_0613800, AP2 domain transcription factor, putative) (Plasmodium falciparum) (UniProt C6KSY0); assay: not given; conditions: PBM; highest protein concentration obtained; buffer not given; scale: PBM E-score of the seed 8-mer
T9 sequence: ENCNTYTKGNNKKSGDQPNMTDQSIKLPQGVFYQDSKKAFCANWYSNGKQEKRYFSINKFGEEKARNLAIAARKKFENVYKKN

| Molecule | binding signal |
| --- | --- |
| ACCTAGGT (double strand) [PFF0670w_D2 Secondary motif 1] | > 0.45 |
| AAGATCTT (double strand) [PFF0670w_D2 Secondary motif 2] | > 0.45 |
| CTCTAGAG (double strand) [PFF0670w_D2 primary motif] | 0.495 |

target: T10, PF11_0404 D1 (PF3D7_1139300, AP2 domain transcription factor, putative) (Plasmodium falciparum) (UniProt Q8IHX2); assay: not given; conditions: PBM; highest protein concentration obtained; buffer not given; scale: PBM E-score of the seed 8-mer
T10 sequence: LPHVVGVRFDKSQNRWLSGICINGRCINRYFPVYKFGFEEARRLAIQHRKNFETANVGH

| Molecule | binding signal |
| --- | --- |
| TAGATCGA (double strand) [PF11_0404_D1 Secondary motif 1] | > 0.45 |
| TAGAACAA (double strand) [PF11_0404_D1 primary motif] | 0.485 |

target: T11, PFD0985w D2ext (ApiAP2) (Plasmodium falciparum) (UniProt Q8I1N6); assay: not given; conditions: PBM; highest protein concentration obtained; buffer not given; scale: PBM E-score of the seed 8-mer
T11 sequence: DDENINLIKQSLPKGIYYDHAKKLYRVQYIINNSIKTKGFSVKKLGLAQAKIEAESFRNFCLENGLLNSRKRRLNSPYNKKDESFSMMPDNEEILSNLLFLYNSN

| Molecule | binding signal |
| --- | --- |
| GTGTTACAC (double strand) [PFD0985w_D2 primary motif] | 0.496 |
| WATTWCAC (double strand) [PFD0985w_D2 Secondary motif 1] | > 0.45 |
| GTGYNYACAC / GTGTRNRCAC [PFD0985w_D2 Secondary motif 2] | > 0.45 |
| CCACACAC (double strand) [PFD0985w_D2 Secondary motif 3] | > 0.45 |

target: T12, PFL1075w D1 (PF3D7_1222400, AP2 domain transcription factor) (Plasmodium falciparum) (UniProt Q8I5J1); assay: not given; conditions: PBM; highest protein concentration obtained; buffer not given; scale: PBM E-score of the seed 8-mer
T12 sequence: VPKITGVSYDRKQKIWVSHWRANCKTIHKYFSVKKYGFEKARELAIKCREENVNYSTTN

| Molecule | binding signal |
| --- | --- |
| TATATATA (double strand) [PFL1075w primary motif] | 0.499 |
| CTGTATAA (double strand) [PFL1075w Secondary motif 2] | > 0.45 |
| TATATAGC (double strand) [PFL1075w Secondary motif 1] | > 0.45 |

target: T13, PFF0200c D1 (PF3D7_0604100, AP2 domain transcription factor) (Plasmodium falciparum) (UniProt C6KSN9); assay: not given; conditions: PBM; highest protein concentration obtained; buffer not given; scale: PBM E-score of the seed 8-mer
T13 sequence: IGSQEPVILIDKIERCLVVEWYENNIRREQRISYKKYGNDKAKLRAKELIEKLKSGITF

| Molecule | binding signal |
| --- | --- |
| WGTGCACTRNA / TNYAGTGCACW [PFF0200c_D1 Secondary motif 3] | > 0.45 |
| MCGCACCC / GGGTGCGK [PFF0200c_D1 Secondary motif 2] | > 0.45 |
| CMTGCACCMC / GKGGTGCAKG [PFF0200c_D1 Secondary motif 1] | > 0.45 |

target: PF10_0075 D3ext (PF3D7_1007700, AP2 domain transcription factor AP2-I) (Plasmodium falciparum, UniProt Q8IJW6 910-1027); assay: EMSA; 5 mM MgCl2 with 10 mM EDTA; LightShift buffer, 2.5% glycerol, 50 mM KCl, 0.05% NP-40, 50 ng/uL poly(dI-dC); room temperature, 20 min; conditions: tags: N-terminal GST (pGEX-4T1), kept; label: 5' biotin

| Molecule | binding result |
| --- | --- |
| msp1 (dsDNA) DNA 1: AAATTGTGTAAATTCATATTCGATAAAGTGCATTAATTTTATTTATCAATTGTAAACATA DNA 2: TATGTTTACAATTGATAAATAAAATTAATGCACTTTATCGAATATGAATTTACACAATTT | binds |
| rhopH3 (dsDNA) DNA 1: ATTAATTTAATATGTACGCAAGGTGCACACTGGTGCATTAAAAAAAAAATATATATTAAT DNA 2: ATTAATATATATTTTTTTTTTAATGCACCAGTGTGCACCTTGCGTACATATTAAATTAAT | binds |
| msp10 (dsDNA) DNA 1: TCAACAATTATTATATAATTAATTAGAAGTGCATTAGGTAACAACTGTCGAATAAATATAT DNA 2: ATATATTTATTCGACAGTTGTTACCTAATGCACTTCTAATTAATTATATAATAATTGTTGA | binds |

target: T14, PFD0985w D2ext (ApiAP2) (Plasmodium falciparum, UniProt Q8I1N6 3258-3362); assay: as above; conditions: tags: N-terminal GST (pGEX-4T1), kept; label: 5' biotin
T14 sequence: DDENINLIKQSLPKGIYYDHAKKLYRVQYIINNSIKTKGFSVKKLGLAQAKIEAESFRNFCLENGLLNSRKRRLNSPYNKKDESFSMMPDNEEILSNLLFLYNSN

| Molecule | binding result |
| --- | --- |
| PFD0985w_D2-1 (motif rank) (dsDNA) DNA 1: AATATTATAATAGTCGTAGCCATCAATGTGTAACACATGGTAATATAGATTTTCGTTTATATT DNA 2: AATATAAACGAAAATCTATATTACCATGTGTTACACATTGATGGCTACGACTATTATAATATT | binds |
| PFD0985w_D2-2 (motif rank) (dsDNA) DNA 1: AATATTATAATAGTCGTAGCCATCAATCCACACACCATGGTAATATAGATTTTCGTTTATATT DNA 2: AATATAAACGAAAATCTATATTACCATGGTGTGTGGATTGATGGCTACGACTATTATAATATT | binds |
| No motif (dsDNA) DNA 1: AATATTATAATAGTCGTAGCCATCAATAAAAAAAAATGGTAATATAGATTTTCGTTTATATT DNA 2: AATATAAACGAAAATCTATATTACCATTTTTTTTTATTGATGGCTACGACTATTATAATATT | no binding |
